Test system: MS2 coat protein
Test: apparent KD of MS2 coat protein; designed switch direction (-1 OFF switch, 1 ON switch): -1; higher = weaker reporter binding
Procedure, shortened: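 Apparent KD, taken as the median over clusters for each design, was obtained by curve-fitting normalised cluster fluorescence. Designed RNA switches had been transcribed on Illumina chips by stalled E. coli RNA polymerase and titrated with SNAP-549-labelled MS2 coat protein, doubling from 0.7 or 1.5 nM to 3 µM.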

[1] = Eterna round: R95, input ligand: FMN 200 uM
[2] = Eterna round: R95, input ligand: microRNA oligo, concentration not stated
[3] = Eterna round: R95, input ligand: none
[4] = input ligand: microRNA oligo, concentration not stated

Sequence	apparent KD of MS2 coat protein (input ligand: FMN 200 uM)	apparent KD of MS2 coat protein (input ligand: none)	apparent KD of MS2 coat protein [1]	apparent KD of MS2 coat protein [2]	apparent KD of MS2 coat protein [3]	apparent KD of MS2 coat protein [4]
AUUAUGUGAGGAUAUUAGUAGUAAAUGAAUAAAAUUAUUACUGAGAAGGCACAUGAGGAUCACCCAUGUUCCUU [Mat - Exclusion 4 - Eli Mod - D6] (Eterna round: R97, puzzle: Exclusion 4)	155 nM	18.1 nM	–	–	–	–
GAUCGUUUAGAGGAUAUCGUGCUAAACAUUACAUGAGAAGGCUAGACAUGAGGAUCACCCAUGUAUACUCGUGA [Exclusion 6 - 8:a] (puzzle: Exclusion 6)	–	–	23.7 nM	14.7 nM	18.7 nM	–
CCACGACAUGAGGAUCACCCAUGUGAGGAUAUGGCCUGUAAAGCGUGAGCUGAAUCAAUCAGAAGGCGCGUGGG [salish99_ex1_r4_058] (Eterna round: R97, puzzle: Exclusion 1)	119 nM	46.1 nM	–	–	–	–
AAGUACCGUCACGAAAGUGAUGGUACAACAAGCAAAUGUACAUGAGGAUCACCCAUGUCCUCGAUUGCUCGUCUUAU [Sensor 3 - 61] (puzzle: Sensor v3, turn-off variant 2)	–	–	77.2 nM	114 nM	93.6 nM	–
GGAAGGAAGGAACAAGUUAACAUGAGGAUCACCCAUGUUGACUUCAUGUGCACGCAAAGCGUGCAAGCUCGUCUUAU [AK-miRNA-r3-16] (Eterna round: R97, puzzle: Sensor, turn-off variant 1)	18.3 nM	17.3 nM	–	–	–	–
GCACGGAGUGUAGGAUAUUAGUGCGAUUAGCACUGAGAAGGACAUGAGGAUCACCCAUGUUCCUCAAUAAUUAACCUUCCGUGC [Eli exng1 - 039] (Eterna round: R96, puzzle: Exclusion NG 1)	16.7 nM	12.9 nM	–	–	–	8.49 nM
ACAUGAGGAUCACCCAUGUCAGGCUGGUCCGCUCCGGCUGUUGAGGAUAUAGCCCGGUAUCCGCGCUAGAAGGUGAGGGCCGGC [Aenatbe mod 28] (Eterna round: R96, puzzle: Exclusion NG 3)	24.8 nM	28.4 nM	–	–	–	26.3 nM
UUCCUGUCAGGAUAUGACUAGAUGCACGAAAGUGUGUUUAGUUAGAAGGGACAUGAGGAUCACCCAUGUAGUCC [Bring Us a Shrubbery-18] (puzzle: Exclusion 4)	–	–	–	20.9 nM	–	–
UUAAUUAAUUUAUUAGAUCCUCACAUGAGGAUCACCCAUGUGCAGGAUAUCAGCUCGAUUAGAGCUGAGAAGGGCACUAUAAAU [ExNG3/10-B1] (Eterna round: R96, puzzle: Exclusion NG 3)	65 nM	62.2 nM	–	–	–	56.4 nM
ACAGGCUUUUUGCUCGUCUACAUGAGGAUCACCCAUGUGGGAUUGUUGGUUGUGUUGCUUGUUUGUGCUCGUCUUGU [Low Nucleotide] (Eterna round: R97, puzzle: Sensor, turn-off variant 1)	16.1 nM	17.6 nM	–	–	–	–
AUGUUAUUGGAAGGAUAUGGUUUACUAUCCUAACAUGAGGAUCACCCAUGUAACCUUAUGUGUAUCCAGAAGGUCCAUAACUUA (Eterna round: R96, puzzle: Exclusion NG 2)	51.9 nM	32.2 nM	–	–	–	22.8 nM
CAAAGAUAAGGAUAUUGAAGGUUCGACAUGAGGAUCACCCAUGUUAUGUUGGAAAAGGGACAAGAAGGUAUGAAAA [salish99_ex5_r4_214] (Eterna round: R97, puzzle: Exclusion 5)	31.5 nM	39.3 nM	–	–	–	–
AGAUGGCGAGGAUAUACAUGAGGAUCACCCAUGUGAAUAAGAAGAGUGAGGAAGAAAAGUAGAAGGCGCUGUCA [Mat - Exclusion 3 - Mod of Salish D31] (puzzle: Exclusion 3)	–	–	128 nM	64.6 nM	99.8 nM	–
UGGCUAAGAGGAUAUACAUUGAAUAAGAUUCAUGUAAAACUACAUGAGGAUCACCCAUGUAGAAGGCUUGGCCU [Mat - Exclusion 2 - JL Mod - D72] (Eterna round: R97, puzzle: Exclusion 2)	25.4 nM	17.4 nM	–	–	–	–
AAGAUGCGGAUAGGAUAUGGAAAAAAAAAAGGAUUAGAAGGGUUGGUUAAAAUACAUGAGGAUCACCCAUGUGAAUCAUGAGAA [AK ExNG1-2.2] (Eterna round: R96, puzzle: Exclusion NG 1)	392 nM	186 nM	–	–	–	188 nM
ACUGUUCGAGGAUAUACGAUCGUGCUUCGGCACGUAAGAUCACAUGAGGAUCACCCAUGUAGAAGGCGAACAGU [Mod 5 - Jieux - Exclusion 2] (Eterna round: R97, puzzle: Exclusion 2)	292 nM	38.6 nM	–	–	–	–
ACGCCGCAAGGAUAUCGUAAAGCAGACAUGAGGAUCACCCAUGUGAUAUCAGAAAGGCCACGAGAAGGUGCACAAG [Tigeor] (puzzle: Exclusion 5)	–	–	32.4 nM	20.3 nM	21.3 nM	–

Sequence	apparent KD of MS2 coat protein (input ligand: FMN 200 uM)	apparent KD of MS2 coat protein (input ligand: none)	apparent KD of MS2 coat protein [1]	apparent KD of MS2 coat protein [2]	apparent KD of MS2 coat protein [3]	apparent KD of MS2 coat protein [4]
UCGAGGUCAGGAUAUACAUGAGGAUCACCCAUGUGGAGAUAAGGUAGGAAAAGAGUAGGUAGAAGGGACGAGAG [JR_Exclu3_Sub048] (puzzle: Exclusion 3)	–	–	61.4 nM	40.6 nM	57.6 nM	–
GGCCGAGAACAGCUCCGCGCUGCCCUCAGCCGCUCAUUUACAUGAGGAUCACCCAUGUUUUUUGCUUGUCUUGUUUC [Antibe] (puzzle: Sensor v3, turn-off variant 2)	–	–	20.3 nM	104 nM	22.3 nM	–
AAGAAGAAGUAAGGAUAUGAAGAUUUGGUGAUGACAUGAGGAUCACCCAUGUGAAAACAAUAAGAUCAGAAGGUAUAAGAAGAA [AK ExNG2-2.2] (Eterna round: R96, puzzle: Exclusion NG 2)	104 nM	112 nM	–	–	–	61.6 nM
AUAAUGUCAGGAUAUCAGAAGUUUAACCUCGGUUAAACUUCUGAGAAGGGACAUGAGGAUCACCCAUGUGAUUA [E4/3-B2] (Eterna round: R97, puzzle: Exclusion 4)	68.4 nM	950 nM	–	–	–	–
AAGGUGUUAGGAUAUCGGAGUUUGAGGCAGACGGGAAUUUUCGAGAAGGAACAUGAGGAUCACCCAUGUAGUAU [JR_Exclu4_Sub039] (puzzle: Exclusion 4)	–	–	–	21.6 nM	–	–
CACUUACAUGAGGAUCACCCAUGUGAGGAUAUCGUGACCAGACGAGAAGUCUAUGUCACGAGAAGGCACGUGGG [Exclusion 1 (Mod 3.1 solution 97 by Eternabot)] (Eterna round: R97, puzzle: Exclusion 1)	20.8 nM	811 nM	–	–	–	–
GCAUCUCGCAAGGGUACCCACAUGAGGAUCACCCAUGUGAUGAUAAACAGGUUUCGUGCGUCCGUUUUAUCCACUUU [Eternabot (L2) Solution 18] (Eterna round: R97, puzzle: Sensor, turn-off variant 1)	737 nM	865 nM	–	–	–	–
AAUCCACAUGAGGAUCACCCAUGUCAGGAUAUCUUUGGCCUAACAUGUUAGGACCGUUAGAGAAGGGACACGAU [EX1 B.28] (Eterna round: R97, puzzle: Exclusion 1)	70.3 nM	18.2 nM	–	–	–	–
UAGAAGGUAGGAUAUACGAAUAAAUAGGGUAGAAUAAUAACACAUGAGGAUCACCCAUGUAGAAGGACCAAGAU [Mat - Exclusion 2 - Mod of my Tesla design - D30] (puzzle: Exclusion 2)	–	–	42.9 nM	20.7 nM	20.7 nM	–
GUGUAGUCAGGAUAUACAUAGGAAGAGAAGAGAAGAGAAGUACAUGAGGAUCACCCAUGUAGAAGGGACAGUGU [Excluse me!! 6 - Jieux - Exclusion 2] (puzzle: Exclusion 2)	–	–	–	21.7 nM	–	–
UAGGGCUGCGGAGGAUAUCCAUAGUGGGCCGGUCGAAGCAUGAGACAUGAGGAUCACCCAUGUCUGGAGAAGGCUGAGCCCUCA [Lequcele] (Eterna round: R96, puzzle: Exclusion NG 2)	20.8 nM	14.1 nM	–	–	–	12.1 nM
CAGUACUACAAGCUUUGGGACAUGAGGAUCACCCAUGUUCGUCUUAUUGAUCUAGGUACGCUGACGUACCUAGAUCU [JL-sv1-2.11 Brourd mod] (puzzle: Sensor v3, turn-off variant 1)	–	–	16.7 nM	33.1 nM	15.3 nM	–
AUAAAGAGGCUAGGAUAUACAUCGGUGCGAAAAGACGUAAUCCUUUGAACAUGAGGAUCACCCAUGUAGAAGGAGCAGACGGAA [Quriored] (Eterna round: R96, puzzle: Exclusion NG 2)	44.5 nM	17.4 nM	–	–	–	11.7 nM
CUGAGGUAGCGGUCCUAUGACAUGAGGAUCACCCAUGUACCUUGCUUCGAGCUAUUUGCUCGUCUUAUGAUUCUCGG [Mat - Sensor v3 - turn-off var 1 - JL Mod - D34] (puzzle: Sensor v3, turn-off variant 1)	–	–	538 nM	483 nM	493 nM	–
UAAUACAAGUAAGGAUUCUACAUGAGGAUCACCCAUGUGCUCGUCUUAUAAAGUACUAUCACGAAAGUGAUAGUACA [Mat - Sensor v3 - turn-off var 1 - Eli Mod - D99] (puzzle: Sensor v3, turn-off variant 1)	–	–	23.5 nM	148 nM	26.4 nM	–
CCAAAUUCAGGAUAUACGAUGGUGAGUUCGUCCUCAAGGCCACAUGAGGAUCACCCAUGUAGAAGGGAGGUCGG [Eternabot (L1) Solution 77] (Eterna round: R97, puzzle: Exclusion 2)	130 nM	35.6 nM	–	–	–	–

Source: the supplement of paper PMC9170038
